Non-standard residues stand in square brackets, D forms with d. No end group written: not given here. Aib = CC(C)(N)C(=O)O
B1: glucagon derivative of SEQ ID NO: 6 (peptide)
peptide: HSQGTFTSDYSKYLDSCEADDFVQWLMNT
B2: glucagon derivative of SEQ ID NO: 8 (peptide)
peptide: Y[Aib]QGTFTSDYSKYLDSCDAQDFVQWLINT
B3: glucagon derivative of SEQ ID NO: 7 (peptide)
peptide: YSQGTFTSDYSKYLDSCEADDFVQWLMNT

Biological target: human glucagon receptor (human, UniProt P47871 26-477)
Assay: cell-based or functional assay

Sequence of human glucagon receptor (P47871 26-477): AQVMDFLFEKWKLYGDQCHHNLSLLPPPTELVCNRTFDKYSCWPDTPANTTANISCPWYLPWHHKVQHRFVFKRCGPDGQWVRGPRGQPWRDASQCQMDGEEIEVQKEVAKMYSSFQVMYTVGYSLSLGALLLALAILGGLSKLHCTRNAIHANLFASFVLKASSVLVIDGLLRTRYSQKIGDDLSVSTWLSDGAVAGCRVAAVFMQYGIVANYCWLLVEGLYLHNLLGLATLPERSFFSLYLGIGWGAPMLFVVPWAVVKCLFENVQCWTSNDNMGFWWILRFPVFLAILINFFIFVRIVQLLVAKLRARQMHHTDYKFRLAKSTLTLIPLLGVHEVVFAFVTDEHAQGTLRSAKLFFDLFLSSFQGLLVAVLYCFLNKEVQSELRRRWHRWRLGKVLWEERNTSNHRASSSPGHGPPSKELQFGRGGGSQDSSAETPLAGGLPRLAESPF

Binder | In vitro Activity (Relative Activity of SEQ ID NO: 1, %), from cAMP EC50 [%]
B1 | < 0.1
B2 | < 0.1
B3 | < 0.1
